In the RNAGym collection of RNA variant scans (doi:10.1021/acssynbio.7b00057):

B1: Pistol ribozyme (parent)
chain: GGGUCGUUGUUCCAUAAUCGCGUGGAUAUGGCACGCAAGUUUCUACCGGGCACCGUAAAUGUCCGACUGGAGCCGUUCGGGCGGCUAUAAACAGACCUCAGGCCCGAAGCGUGGCGGCACCUGCCGCCGGUGGUAAAAAAGAUCGGAAGAGCACACGUCU

Variants of: B1
Assay: aptazyme ON/OFF ratio, guanine; higher = stronger switching; co-transcriptional cleavage with and without guanine

Variant	aptazyme ON/OFF ratio
U7G U8G G9A U11C	1.54
U7G U8G G9A U11A	2.46
U7G U8G G9A U10C U11C C12G C13G	1.03
U7G U8G G9A U10C U11C C12G C13U	1.12
U7G U8G G9A U10C U11C C12G C13A	1.16
U7G U8G G9A U11A C12U C13U	1.22
U7G U8G G9A U11A C12U C13A	1.15
U7G U8G G9A U11A C12U C13G	1.12
U7G U8G G9A U10G C12G	1.28
U7G U8G G9A U10G C12A	1.27
U7G U8G G9A U10G C12U	1.29
U7G U8G G9A U10C C13A	1.12
U7G U8G G9A U10C C13U	1.59
U7G U8G G9A U10C C13G	1.12
U7G U8G G9A U11A C12A C13A	1.23
U7G U8G G9A U11A C12A C13U	1.38
U7G U8G G9A U11A C12A C13G	1.14
U7G U8G G9C C12G	1.47
U7G U8G G9C C12A	1.22
U7G U8G G9C C12U	1.94
U7G U8G G9A U10C U11A C12G	1.21
U7G U8G G9A U10C U11A C12U	1.18
U7G U8G G9A U10C U11A C12A	1.34
U7G U8C U11C C12A	1.69

Variant	aptazyme ON/OFF ratio
U7G U8C U11C C12U	1.57
U7G U8C U11C C12G	1.38
U7G U8G G9A U10A U11A C12U C13U	1.24
U7G U8G G9A U10A U11A C12U C13A	1.03
U7G U8G G9A U10A U11A C12U C13G	1.13
U7G U8G G9A U10G U11G C13G	1.41
U7G U8G G9A U10G U11G C13U	1.22
U7G U8G G9A U10G U11G C13A	1.13
U7G U8G G9A U10G U11A C12A C13G	1.04
U7G U8G G9A U10G U11A C12A C13U	1.18
U7G U8G G9A U10G U11A C12A C13A	1.12
U7G U8G G9A U10A U11G C12G	1.43
U7G U8G G9A U10A U11G C12A	1.07
U7G U8G G9A U10A U11G C12U	1.22
U7G U8G C13A	1.4
U7G U8G C13G	1.42
U7G U8G C13U	1.7
U7G U8G G9C C12U C13A	1.11
U7G U8G G9C C12U C13G	1.22
U7G U8G G9A U10G U11C C12U C13A	1.07
U7G U8G G9A U10G U11C C12U C13G	1.27
U7G U8G G9A U10G U11C C12U C13U	1.29
U7G U8G G9A U10A U11G C12A C13A	1.13
U7G U8G G9A U10A U11G C12A C13U	1.1

Variant	aptazyme ON/OFF ratio
U7G U8G G9A U10A U11G C12A C13G	1.03
U7G U8G G9A U10C U11A C12G C13A	1.04
U7G U8G G9A U10C U11A C12G C13G	1.18
U7G U8G G9A U10C U11A C12G C13U	1.17
U7G U8G	1.29
U7G U8G G9A U10C U11C C13A	0.99
U7G U8G G9A U10C U11C C13U	1.01
U7G U8G G9A U10C U11C C13G	0.991
U7G U8G G9A U10A C12G C13U	1.22
U7G U8G G9A U10A C12G C13G	1.18
U7G U8G G9A U10A C12G C13A	1.1
U7G U8C U11G C12U C13A	1.14
U7G U8C U11G C12U C13U	1.22
U7G U8C U11G C12U C13G	1.08
U7G U8G G9A C13A	1.5
U7G U8G G9A C13G	1.17
U7G U8G G9A C13U	1.36
U7G U8G G9A U10A U11A C12G C13G	1.1
U7G U8G G9A U10A U11A C12G C13U	1.33
U7G U8G G9A U10A U11A C12G C13A	1.15
U7G U8G G9A C12U C13U	1.41
U7G U8G G9A C12U C13G	1.22
U7G U8G G9A C12U C13A	1.27
U7G U8C U11A C12G C13A	1.09

Variant	aptazyme ON/OFF ratio
U7G U8C U11A C12G C13G	1.07
U7G U8C U11A C12G C13U	1.12
U7G U8G G9C C12A C13U	1.2
U7G U8G G9C C12A C13A	1.22
U7G U8G G9C C12A C13G	1.08
U7G U8G G9A U10G U11C C12A C13G	1.15
U7G U8G G9A U10G U11C C12A C13A	1.17
U7G U8G G9A U10G U11C C12A C13U	1.27
U7G U8G C12G C13A	1.4
U7G U8G C12G C13G	1.36
U7G U8G C12G C13U	1.37
U7G U8C U11C C12G C13U	1.46
U7G U8C U11C C12G C13A	1.32
U7G U8C U11C C12G C13G	1.11
U7G U8G G9A U10G U11G C12A C13G	1.15
U7G U8G G9A U10G U11G C12A C13A	1.1
U7G U8G G9A U10G U11G C12A C13U	1.17
U7G U8G G9A U11A C12G	1.12
U7G U8G G9A U11A C12U	1.44
U7G U8G G9A U11A C12A	1.38
U7G U8G G9A U10G C13G	1.11
U7G U8G G9A U10G C13U	1.27
U7G U8G G9A U10G C13A	1.39
U7G U8G G9A C12A C13A	1.32

Variant	aptazyme ON/OFF ratio
U7G U8G G9A C12A C13G	1.11
U7G U8G G9A C12A C13U	1.49
U7G U8G G9C C12G C13U	1.35
U7G U8G G9C C12G C13A	1.28
U7G U8G G9C C12G C13G	1.13
U7G U8G G9A U10A U11G	2.19
U7G U8G G9A U10A U11C	1.02
U7G U8G G9A U10A U11A	1.53
U7G U8G G9A U10A U11G C12G C13A	1.14
U7G U8G G9A U10A U11G C12G C13G	1.15
U7G U8G G9A U10A U11G C12G C13U	1.06
U7G U8G G9A U10A U11A C13A	1.16
U7G U8G G9A U10A U11A C13G	1.14
U7G U8G G9A U10A U11A C13U	1.18
U7G U8G G9A U11G C12U C13U	1.4
U7G U8G G9A U11G C12U C13A	1.23
U7G U8G G9A U11G C12U C13G	1.25
U7G U8G G9A U10G C12G C13U	1.55
U7G U8G G9A U10G C12G C13A	1.11
U7G U8G G9A U10G C12G C13G	1.16
U7G U8G G9A U10C U11A C12U C13U	1.08
U7G U8G G9A U10C U11A C12U C13G	1.08
U7G U8G G9A U10C U11A C12U C13A	1.06
U7G U8C U11C C13U	1.32

Variant	aptazyme ON/OFF ratio
U7G U8C U11C C13A	1.3
U7G U8C U11C C13G	1.07
U7G U8C U11A C12U C13U	1.21
U7G U8C U11A C12U C13A	1.2
U7G U8C U11A C12U C13G	1.14
U7G U8G G9A U11C C12G C13A	1.21
U7G U8G G9A U11C C12G C13G	1.11
U7G U8G G9A U11C C12G C13U	1.35
U7G U8G G9A U10A U11C C12G C13A	1.13
U7G U8G G9A U10A U11C C12G C13G	1.22
U7G U8G G9A U10A U11C C12G C13U	1.13
U7G U8G G9A U10G U11C C12U	1.27
U7G U8G G9A U10G U11C C12G	1.26
U7G U8G G9A U10G U11C C12A	1.4
U7G U8C U11G C12A C13G	1.15
U7G U8C U11G C12A C13U	1.19
U7G U8C U11G C12A C13A	1.13
U7G U8C U11C C12U C13U	1.45
U7G U8C U11C C12U C13A	1.34
U7G U8C U11C C12U C13G	1.3
U7G U8G G9A U10C U11G	1.89
U7G U8G G9A U10C U11C	1.08
U7G U8G G9A U10C U11A	2.49
U7G U8G G9A U10C C12A	1.46

Variant	aptazyme ON/OFF ratio
U7G U8G G9A U10C C12G	1.28
U7G U8G G9A U10C C12U	1.59
U7G U8G G9A U10A C12U C13G	1.15
U7G U8G G9A U10A C12U C13U	1.35
U7G U8G G9A U10A C12U C13A	1.22
U7G U8G G9A U10C U11G C12U C13U	1.38
U7G U8G G9A U10C U11G C12U C13A	1.27
U7G U8G G9A U10C U11G C12U C13G	1.16
U7G U8G G9A U11C C12U C13U	1.02
U7G U8G G9A U11C C12U C13G	1.44
U7G U8G G9A U11C C12U C13A	1.31
U7G U8G G9A U10G C12U C13U	1.17
U7G U8G G9A U10G C12U C13A	1.25
U7G U8G G9A U10G C12U C13G	1.31
U7G U8G G9A U10C C12G C13U	1.33
U7G U8G G9A U10C C12G C13G	1.16
U7G U8G G9A U10C C12G C13A	1.26
U7G U8G G9A U10G U11G C12G	1.3
U7G U8G G9A U10G U11G C12A	1.21
U7G U8G G9A U10G U11G C12U	1.43
U7G U8C U11G C12G	1.22
U7G U8C U11G C12A	1.14
U7G U8C U11G C12U	1.28
